Assays:
[1] = target: cyno PD-1^ECD-hFc protein (cyno monkey) (UniProt B0LAJ3); experiment: ELISA, coated cyno PD-1ECD-hFc; antibody 0.0001 nM
[2] = target: full length human PD-1 on cells (human) (UniProt Q15116); experiment: flow cytometry, CHO-K1-hPD-1 cells; antibody 0.01 nM
[3] = target: full length human PD-1 on cells (human) (UniProt Q15116); experiment: flow cytometry, CHO-K1-hPD-1 cells; antibody 0.00001 nM
[4] = target: human PD-1^ECD-hFc protein (Immunogen A) (human) (UniProt Q15116); experiment: ELISA, coated human PD-1ECD-hFc; antibody 0.001 nM
human PD-1^ECD-hFc protein (Immunogen A) (human), sequence (Q15116 25-167): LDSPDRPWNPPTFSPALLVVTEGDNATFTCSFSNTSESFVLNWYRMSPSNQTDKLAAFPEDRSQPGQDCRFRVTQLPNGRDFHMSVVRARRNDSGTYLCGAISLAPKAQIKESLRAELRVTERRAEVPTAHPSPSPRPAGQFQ

[5] = target: full length human PD-1 on cells (human) (UniProt Q15116); experiment: flow cytometry, CHO-K1-hPD-1 cells; antibody 0.001 nM
[6] = target: human PD-1, full length, on cells (human) (UniProt Q15116); experiment: cell-based or functional assay
human PD-1, full length, on cells (human), sequence (Q15116 25-288): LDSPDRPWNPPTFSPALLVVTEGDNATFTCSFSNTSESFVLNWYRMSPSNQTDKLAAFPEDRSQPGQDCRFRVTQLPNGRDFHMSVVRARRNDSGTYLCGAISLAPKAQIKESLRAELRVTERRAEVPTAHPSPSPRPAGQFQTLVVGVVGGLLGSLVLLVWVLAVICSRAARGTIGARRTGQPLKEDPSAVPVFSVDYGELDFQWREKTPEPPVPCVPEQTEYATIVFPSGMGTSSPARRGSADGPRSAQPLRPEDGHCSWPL

[7] = target: cyno PD-1^ECD-hFc protein (cyno monkey) (UniProt B0LAJ3); experiment: ELISA, coated cyno PD-1ECD-hFc; antibody 0.001 nM
[8] = target: full length human PD-1 on cells (human) (UniProt Q15116); experiment: flow cytometry, CHO-K1-hPD-1 cells; antibody 0.0001 nM
CD28 (human) = CD28 (human) (UniProt P10747); experiment: ELISA, coated protein 1 ug/mL; antibody concentration not stated
CD28 (human), sequence (P10747 19-152 limits assumed): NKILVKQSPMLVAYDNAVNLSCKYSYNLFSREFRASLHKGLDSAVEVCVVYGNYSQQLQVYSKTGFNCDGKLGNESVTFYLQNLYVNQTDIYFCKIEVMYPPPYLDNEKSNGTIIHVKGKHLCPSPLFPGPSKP

ICOS (human) = ICOS (human) (UniProt Q9Y6W8); experiment: as above
ICOS (human), sequence (Q9Y6W8 21-140 limits assumed): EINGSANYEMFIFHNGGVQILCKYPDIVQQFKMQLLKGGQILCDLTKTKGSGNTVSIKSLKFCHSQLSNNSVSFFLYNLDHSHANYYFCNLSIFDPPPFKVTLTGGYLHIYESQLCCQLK

B7-1 (human) = B7-1 (human) (UniProt P33681); experiment: as above
B7-1 (human), sequence (P33681 35-242 limits assumed): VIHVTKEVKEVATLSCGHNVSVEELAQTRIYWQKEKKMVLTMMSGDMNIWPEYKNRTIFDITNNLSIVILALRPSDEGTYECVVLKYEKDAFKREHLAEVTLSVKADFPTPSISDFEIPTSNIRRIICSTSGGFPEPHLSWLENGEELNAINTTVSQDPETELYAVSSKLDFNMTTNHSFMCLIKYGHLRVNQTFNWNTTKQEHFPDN

CTLA4 (human) = CTLA4 (human) (UniProt P16410); experiment: as above
CTLA4 (human), sequence (P16410 37-162 limits assumed): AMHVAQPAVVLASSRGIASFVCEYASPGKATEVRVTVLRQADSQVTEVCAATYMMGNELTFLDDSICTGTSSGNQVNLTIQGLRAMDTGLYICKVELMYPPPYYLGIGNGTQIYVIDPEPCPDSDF

[9] = target: human PD-1^ECD-hFc protein (Immunogen A) (human) (UniProt Q15116); experiment: as above
[10] = target: cyno PD-1^ECD-hFc protein (cyno monkey) (UniProt B0LAJ3); experiment: ELISA, coated cyno PD-1ECD-hFc; antibody 0.00001 nM
[11] = target: human PD-1^ECD-hFc protein (Immunogen A) (human) (UniProt Q15116); experiment: ELISA, coated human PD-1ECD-hFc; antibody 0.00001 nM
[12] = target: human PD-1^ECD-hFc protein (Immunogen A) (human) (UniProt Q15116); experiment: ELISA, coated human PD-1ECD-hFc; antibody 0.0001 nM
[13] = target: human PD-1^ECD-hFc protein (Immunogen A) (human) (UniProt Q15116); experiment: ELISA, coated PD-1ECD-hFc; biotinylated protein 0.0016 ug/mL
[14] = target: human PD-1^ECD-hFc protein (Immunogen A) (human) (UniProt Q15116); experiment: ELISA, coated PD-1ECD-hFc; biotinylated protein 0.0003 ug/mL
[15] = target: human PD-1^ECD-hFc protein (Immunogen A) (human) (UniProt Q15116); experiment: ELISA, coated PD-1ECD-hFc; biotinylated protein 1 ug/mL
[16] = target: human PD-1^ECD-hFc protein (Immunogen A) (human) (UniProt Q15116); experiment: ELISA, coated PD-1ECD-hFc; biotinylated protein 0.2 ug/mL
[17] = target: human PD-1^ECD-hFc protein (Immunogen A) (human) (UniProt Q15116); experiment: ELISA, coated PD-1ECD-hFc; biotinylated protein 0.04 ug/mL
[18] = target: human PD-1^ECD-hFc protein (Immunogen A) (human) (UniProt Q15116); experiment: ELISA, coated PD-1ECD-hFc; biotinylated protein 0.00001 ug/mL
[19] = target: human PD-1^ECD-hFc protein (Immunogen A) (human) (UniProt Q15116); experiment: ELISA, coated PD-1ECD-hFc; biotinylated protein 0.0001 ug/mL
[20] = target: human PD-1^ECD-hFc protein (Immunogen A) (human) (UniProt Q15116); experiment: ELISA, coated PD-1ECD-hFc; biotinylated protein 0.008 ug/mL

full length human PD-1 on cells (human), sequence (Q15116 25-288 limits assumed): as the sequence (Q15116 25-288) above
cyno PD-1^ECD-hFc protein (cyno monkey), sequence (B0LAJ3 entry or part of it limits assumed): as the sequence (Q15116 25-167) above, with D2E, P10A, V19L, T35A, Q75R counted along it

Substance: IgG control (human IgG) (antibody)
- OD450 nm [1]: 0.11
- Mean fluorescence intensity [2]: 2.9
- Mean fluorescence intensity [3]: 2.7
- OD450 nm [4]: 0.311
- Mean fluorescence intensity [5]: 2.9
- IFN-γ release, mixed lymphocyte reaction (PBMC donor-2), antibody 0.01 µg/mL [6]: 353 pg/mL
- IFN-γ release, mixed lymphocyte reaction (PBMC donor-2), antibody 0.1 µg/mL [6]: 281 pg/mL
- IFN-γ release, mixed lymphocyte reaction (PBMC donor-2), antibody 1 µg/mL [6]: 127 pg/mL
- OD450 nm [7]: 0.106
- Mean fluorescence intensity [8]: 3.1
- OD450 nm (CD28 (human)): 0.064
- OD450 nm (ICOS (human)): 0.142
- OD450 nm (B7-1 (human)): 0.07
- OD450 nm (CTLA4 (human)): 0.062
- OD450 nm [9]: 0.082
- OD450 nm [10]: 0.116
- OD450 nm [11]: 0.287
- OD450 nm [12]: 0.298

Substance: control protein (biotinylated non-PD-L1^ECD-hFc)
- OD450 nm [13]: 0.195
- OD450 nm [14]: 0.195
- OD450 nm [15]: 0.13
- OD450 nm [16]: 0.095
- OD450 nm [17]: 0.09
- OD450 nm [18]: 0.205
- OD450 nm [19]: 0.32
- OD450 nm [20]: 0.14
